This note sets out measurements from the RNAGym collection of RNA variant scans (doi:10.1073/pnas.2313332121).

B1: TPR t1 (parent)
chain: GACCAAUCUGCCCUCAGAGCUCGAGAACAUCUUCGGAUGCAGAGGAGGCAGGCUUCGGUGGCGCGAUAGCGCCAACGUCCUCAACCUCCAAUGCAUCCCACCACAUGAUGAUGCCUGAAGAGCCUUGGUUUUUUG

The series covers variants of B1. Put plainly: polymerase ribozyme fitness, log enrichment relative to wild type (log ratio); higher = more active; in vitro selection for triplet polymerase activity. The gist of the method:
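A single round of triplicate in vitro selection, including frozen incubation at −7 °C, was applied to PCR-built, transcribed mutant libraries of each subunit of a heterodimeric triplet polymerase ribozyme. Illumina sequencing of input and output libraries retained genotypes with ≥10 input reads and ≥1 read per output. Fitness is the base-2 logarithm of genotype enrichment divided by wild-type enrichment, from inverse-variance-weighted replicate averages.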
With C34G C73U, the “polymerase ribozyme fitness (log ratio)” value is -5.17.
With G35A G71A the figure was -4.49; with C34A A84G A121G, -2.74.
For the variant C34U G48U, the “polymerase ribozyme fitness (log ratio)” value is -4.63.
As for C34U C72U A105G G120A, the “polymerase ribozyme fitness (log ratio)” value is -6.01.
As to G35A C49A G60U C86U C89A, the “polymerase ribozyme fitness (log ratio)” value is -7.46.
With G35U G63U C72U the figure was -7.14; with C34A C73A, -2.46; with C34A C82A, -2.72.
As to C34U A41G C56U G63C C89A A95U C104G G110A, the “polymerase ribozyme fitness (log ratio)” value is -5.19.
For the variant C34U C53G A66U C124A, the “polymerase ribozyme fitness (log ratio)” value was -6.48.
Take C34A C89U: the “polymerase ribozyme fitness (log ratio)” value is -4.08.
C34A C89A: the “polymerase ribozyme fitness (log ratio)” value was -5.68.
With C34U G63C A100U A111C the figure was -5.4.
On to C34U C72G, for which the “polymerase ribozyme fitness (log ratio)” value was -2.99.
With C34G U67C A103G G107C U116C C123G the figure was -7.28; with C34G C73A U116A A121U, -4.42.
Regarding C34G C82U, the “polymerase ribozyme fitness (log ratio)” value was -6.19.
With C34A G42A G61A G117C U131C the figure was -7.25; with G35C C72U C114U, -6.13.
With C34U G77A the figure was -5.22; with G36A A37G C70A, -3.19; with C34A C79G, -6.59.
For the variant C34A C79U, the “polymerase ribozyme fitness (log ratio)” value was -2.71.
With G35C C72U the figure was -4.96; with C34A U78C C88U, -1.84.
With C34U A74U the figure was -4.36.
For the variant G35A C114G, the “polymerase ribozyme fitness (log ratio)” value was -5.64.
With C34U G47A C72U U78A C115A the figure was -6.19.
With G36A A121U U133A the figure was 1.79; with G35C G36A G51C C123G, -6.59.
In the case of C34U U78A, the “polymerase ribozyme fitness (log ratio)” value is -4.78.
With C34U U78C the figure was -4.25; with G35A A66C G117U, -5.98; with C34A U109C, -6.24.
With C34U C123U the figure was -2.86; with C34A C40U C85A, -5.11; with C34A C114G, -5.41.
As for C34G C73U C104G U116C A121C G122U, the “polymerase ribozyme fitness (log ratio)” value is -6.01.
On to C34G A46U, for which the “polymerase ribozyme fitness (log ratio)” value is -6.06.
With C34U C56A C114U the figure was -4.57; with G36A A121C, 0.979.
Regarding C34A G71C U129C, the “polymerase ribozyme fitness (log ratio)” value is -5.07.
With C34A G45U the figure was -4.49; with C34U G93A, -3.87; with G35A C94G C123G U129C, -5.78.
As to G35C C76G C99G A100C U112A G120A, the “polymerase ribozyme fitness (log ratio)” value is -6.53.
With C34A G71A U78C C94U U125A the figure was -5.82.
With G35A G122U C123G the figure was -4.
G35U G69U: the “polymerase ribozyme fitness (log ratio)” value was -0.908.
With C34A A50U C53U A121C the figure was -4.91; with C34U G63C, -3.94; with G35C U59G C76A C98A, -5.8.
Consider C34A C56A G93A C97U, for which the “polymerase ribozyme fitness (log ratio)” value was -4.7.
With C34U C62U the figure was -5.32; with G35C G61C C64A C123G, -6.08; with G35A G36U U112A, -5.59.
Take C34G A43U G60C C82A A100U C114U U130C U132A U134C: the “polymerase ribozyme fitness (log ratio)” value is -5.7.
With G35C C73A the figure was -5.42.
With C34A A68G A100C C123U the figure was -5.6; with C34A G58A, -2.81.
Consider G35U C53U C124G, for which the “polymerase ribozyme fitness (log ratio)” value is -4.66.
In the case of G35C G45U G61A A121G, the “polymerase ribozyme fitness (log ratio)” value was -3.1.
With C34A A46U A75G C102U A111G the figure was -3.22; with G35A C88U A121U, -1.91.
With C34U C115U the figure was -5.45; with C34A G61U U112G C123A, -4.54; with G35C A95U C99U C104A A111C, -6.57.
Consider G35A G44U C115A C124G, for which the “polymerase ribozyme fitness (log ratio)” value is -2.88.
With C34U G57A G107A U109A U116G the figure was -6.43.
Consider C34U G110A, for which the “polymerase ribozyme fitness (log ratio)” value was -4.68.
With C34G C49U C97U C114G the figure was -7.24; with C34U C70G, -5.34; with C34A C72U G110U, -6.56.
For the variant C34A U55C G60A U129G, the “polymerase ribozyme fitness (log ratio)” value was -4.44.
Turning to C34A C70A, the “polymerase ribozyme fitness (log ratio)” value is -4.06.
With C34A G60C A100G, the “polymerase ribozyme fitness (log ratio)” value is -5.76.
With C34A G52U C53U A90U U106A the figure was -4.54.
With C34A G117U the figure was -6.2; with C34U C88U, -4.26; with G35U C64G C97G G117C, -7.13.
With C34A C56A C104U the figure was -2.11; with C34G G63C, -6.66; with G36A A37G A111G G113C A121C, -5.88.
